{"source": "paper PMC3479192", "test_in_all_cases": "dynamic light scattering", "key": {"[1]": {"target": "full-length BLM protein (human) (UniProt P54132)"}, "[2]": {"target": "full-length BLM protein (human) (UniProt P54132)", "remark": "listed apart in the source"}, "[3]": {"target": "full-length BLM protein (human) (UniProt P54132)", "remark": "listed apart in the source"}}, "note": "Like-named read-outs stand apart in the source and are kept apart here."}
{"substance": "full-length BLM protein, P54132 1-1417 (enzyme; other documents disagree on this pair)", "values": [{"measurement": "% mass in the high-order oligomer peak (radius 9.9 nm)", "setting": "[1]", "result": 96.1, "unit": "%"}, {"measurement": "% mass in the high-order oligomer peak (radius 10.1 nm)", "setting": "[1]", "result": 97.2, "unit": "%"}, {"measurement": "% mass in the high-order oligomer peak (radius 12.6 nm)", "setting": "[1]", "result": 62.2, "unit": "%"}, {"measurement": "% mass in the high-order oligomer peak (radius 12.7 nm)", "setting": "[1]", "result": 57.8, "unit": "%"}, {"measurement": "% mass in the high-order oligomer peak (radius 20.3 nm)", "setting": "[1]", "result": 90.5, "unit": "%"}, {"measurement": "% mass in the low-order oligomer peak (radius 8.2 nm)", "setting": "[1]", "result": 37.8, "unit": "%"}, {"measurement": "stoichiometry N", "setting": "[1]", "result": 6}, {"measurement": "stoichiometry N", "setting": "[2]", "result": 6}, {"measurement": "stoichiometry N", "setting": "[3]", "result": 3}]}
